Measured values as given in paper PMC1888729.

Tests used:
[1] = target: T1, His-tagged U2AF35 (HEK-293E), Q01081; assay: pull-down; His-tagged U2AF35 expressed in 293E cells, lysate (50 mM Tris-HCl pH 8, 1% NP-40, 5 mM imidazole) on Ni-NTA agarose 1 h at 4°C, wash 0.5 M NaCl, eluted with 0.5 M imidazole; western blot; amounts by Coomassie stain against BSA; conditions: remark: other sources report otherwise
T1 chain: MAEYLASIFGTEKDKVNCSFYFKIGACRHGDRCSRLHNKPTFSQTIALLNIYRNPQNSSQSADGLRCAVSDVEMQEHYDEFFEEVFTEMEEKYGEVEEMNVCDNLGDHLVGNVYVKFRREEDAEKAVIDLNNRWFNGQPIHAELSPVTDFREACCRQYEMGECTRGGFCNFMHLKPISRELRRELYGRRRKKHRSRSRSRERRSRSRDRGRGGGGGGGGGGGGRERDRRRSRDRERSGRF

[2] = target: T2, U2AF35 (recombinant human, baculovirus-infected SF9 cells) (human), Q01081; assay: co-purification; human U2AF65/35 heterodimer purified from baculovirus-infected SF9 cells as described previously; conditions: remark: other sources report otherwise
T2 chain: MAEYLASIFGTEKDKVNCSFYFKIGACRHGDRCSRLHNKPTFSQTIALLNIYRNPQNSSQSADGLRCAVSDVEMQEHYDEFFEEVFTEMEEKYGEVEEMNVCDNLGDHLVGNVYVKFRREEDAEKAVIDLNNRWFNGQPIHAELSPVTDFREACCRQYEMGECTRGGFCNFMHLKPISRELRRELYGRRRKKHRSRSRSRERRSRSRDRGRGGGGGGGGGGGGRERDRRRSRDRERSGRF

B1: U2AF65 (co-purified from HEK-293E), P26368 1-475 (natural protein)
chain: MSDFDEFERQLNENKQERDKENRHRKRSHSRSRSRDRKRRSRSRDRRNRDQRSASRDRRRRSKPLTRGAKEEHGGLIRSPRHEKKKKVRKYWDVPPPGFEHITPMQYKAMQAAGQIPATALLPTMTPDGLAVTPTPVPVVGSQMTRQARRLYVGNIPFGITEEAMMDFFNAQMRLGGLTQAPGNPVLAVQINQDKNFAFLEFRSVDETTQAMAFDGIIFQGQSLKIRRPHDYQPLPGMSENPSVYVPGVVSTVVPDSAHKLFIGGLPNYLNDDQVKELLTSFGPLKAFNLVKDSATGLSKGYAFCEYVDINVTDQAIAGLNGMQLGDKKLLVQRASVGAKNATLVSPPSTINQTPVTLQVPGLMSSQVQMGGHPTEVLCLMNMVLPEELLDDEEYEEIVEDVRDECSKYGLVKSIEIPRPVDGVEVPGCGKIFVEFTSVFDCQKAMQGLTGRKFANRVVVTKYCDPDSYHRRDFW
With B1 the stoichiometry N (U2AF35 per U2AF65) [1] was 3.5.

B2: U2AF65 (recombinant human, baculovirus-infected SF9 cells), P26368 1-475 (natural protein)
chain: MSDFDEFERQLNENKQERDKENRHRKRSHSRSRSRDRKRRSRSRDRRNRDQRSASRDRRRRSKPLTRGAKEEHGGLIRSPRHEKKKKVRKYWDVPPPGFEHITPMQYKAMQAAGQIPATALLPTMTPDGLAVTPTPVPVVGSQMTRQARRLYVGNIPFGITEEAMMDFFNAQMRLGGLTQAPGNPVLAVQINQDKNFAFLEFRSVDETTQAMAFDGIIFQGQSLKIRRPHDYQPLPGMSENPSVYVPGVVSTVVPDSAHKLFIGGLPNYLNDDQVKELLTSFGPLKAFNLVKDSATGLSKGYAFCEYVDINVTDQAIAGLNGMQLGDKKLLVQRASVGAKNATLVSPPSTINQTPVTLQVPGLMSSQVQMGGHPTEVLCLMNMVLPEELLDDEEYEEIVEDVRDECSKYGLVKSIEIPRPVDGVEVPGCGKIFVEFTSVFDCQKAMQGLTGRKFANRVVVTKYCDPDSYHRRDFW
With B2 the stoichiometry N (U2AF35 per U2AF65) [2] was 1.
